Laboratory results reported in patent US20150330981A1 (published 2015).
Blank lines part the entries; values can stand above or below the molecule they belong to.

Columns and labels:
[1] = target: T1, GST-PGC-1β (1-367 aa; GST-P5) (UniProt Q8VHJ7)
T1 sequence: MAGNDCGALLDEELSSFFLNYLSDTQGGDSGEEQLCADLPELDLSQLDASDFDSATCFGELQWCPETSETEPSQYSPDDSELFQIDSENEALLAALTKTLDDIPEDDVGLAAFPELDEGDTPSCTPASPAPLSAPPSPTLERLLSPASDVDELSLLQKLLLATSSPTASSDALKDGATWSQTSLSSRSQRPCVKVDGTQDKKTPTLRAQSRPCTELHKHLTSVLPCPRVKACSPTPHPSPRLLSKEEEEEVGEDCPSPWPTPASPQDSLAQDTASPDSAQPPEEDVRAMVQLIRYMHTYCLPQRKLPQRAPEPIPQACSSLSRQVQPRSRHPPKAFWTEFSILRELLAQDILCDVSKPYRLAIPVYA

[2] = target: T2, in vitro transcribed/translated PGC-1β (FLAG-PGC), Q8VHJ7
T2 chain: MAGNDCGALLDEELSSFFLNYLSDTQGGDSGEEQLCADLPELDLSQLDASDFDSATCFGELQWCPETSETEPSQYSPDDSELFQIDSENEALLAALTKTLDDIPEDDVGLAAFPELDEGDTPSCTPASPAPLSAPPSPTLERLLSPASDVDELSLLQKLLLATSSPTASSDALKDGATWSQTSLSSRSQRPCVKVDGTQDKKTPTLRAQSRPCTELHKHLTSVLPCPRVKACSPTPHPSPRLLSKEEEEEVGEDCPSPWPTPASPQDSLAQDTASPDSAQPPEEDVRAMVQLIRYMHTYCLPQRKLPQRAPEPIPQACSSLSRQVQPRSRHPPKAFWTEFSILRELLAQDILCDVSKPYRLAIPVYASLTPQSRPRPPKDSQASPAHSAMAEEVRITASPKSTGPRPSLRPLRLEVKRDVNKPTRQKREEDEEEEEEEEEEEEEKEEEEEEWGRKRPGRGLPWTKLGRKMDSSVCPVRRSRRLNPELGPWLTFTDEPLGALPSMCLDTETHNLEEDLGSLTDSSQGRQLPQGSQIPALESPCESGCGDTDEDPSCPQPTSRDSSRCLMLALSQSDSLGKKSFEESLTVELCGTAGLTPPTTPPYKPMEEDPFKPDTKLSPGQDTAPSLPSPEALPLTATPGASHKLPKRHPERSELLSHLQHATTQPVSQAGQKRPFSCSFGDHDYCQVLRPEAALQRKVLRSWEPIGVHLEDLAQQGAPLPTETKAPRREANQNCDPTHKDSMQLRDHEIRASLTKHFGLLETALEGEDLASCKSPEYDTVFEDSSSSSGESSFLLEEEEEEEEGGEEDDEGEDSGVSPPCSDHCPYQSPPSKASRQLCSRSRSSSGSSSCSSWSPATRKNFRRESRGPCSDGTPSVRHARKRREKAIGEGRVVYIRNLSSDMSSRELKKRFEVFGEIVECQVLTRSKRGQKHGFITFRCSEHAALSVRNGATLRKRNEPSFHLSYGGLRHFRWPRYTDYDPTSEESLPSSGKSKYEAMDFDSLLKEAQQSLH

[3] = target: T3, HA PGC-1β (full-length mouse PGC-1β with HA tag) (mouse, UniProt Q8VHJ7 1-1014); assay: co-immunoprecipitation with anti-FLAG from HEK-293T extract, anti-HA Western blot
T3 construct: also called mPGC-1β; pcDNA3 HAPGC-1β; not shown: HA tag from pcDNA3 HA vector
T3 sequence (looked up): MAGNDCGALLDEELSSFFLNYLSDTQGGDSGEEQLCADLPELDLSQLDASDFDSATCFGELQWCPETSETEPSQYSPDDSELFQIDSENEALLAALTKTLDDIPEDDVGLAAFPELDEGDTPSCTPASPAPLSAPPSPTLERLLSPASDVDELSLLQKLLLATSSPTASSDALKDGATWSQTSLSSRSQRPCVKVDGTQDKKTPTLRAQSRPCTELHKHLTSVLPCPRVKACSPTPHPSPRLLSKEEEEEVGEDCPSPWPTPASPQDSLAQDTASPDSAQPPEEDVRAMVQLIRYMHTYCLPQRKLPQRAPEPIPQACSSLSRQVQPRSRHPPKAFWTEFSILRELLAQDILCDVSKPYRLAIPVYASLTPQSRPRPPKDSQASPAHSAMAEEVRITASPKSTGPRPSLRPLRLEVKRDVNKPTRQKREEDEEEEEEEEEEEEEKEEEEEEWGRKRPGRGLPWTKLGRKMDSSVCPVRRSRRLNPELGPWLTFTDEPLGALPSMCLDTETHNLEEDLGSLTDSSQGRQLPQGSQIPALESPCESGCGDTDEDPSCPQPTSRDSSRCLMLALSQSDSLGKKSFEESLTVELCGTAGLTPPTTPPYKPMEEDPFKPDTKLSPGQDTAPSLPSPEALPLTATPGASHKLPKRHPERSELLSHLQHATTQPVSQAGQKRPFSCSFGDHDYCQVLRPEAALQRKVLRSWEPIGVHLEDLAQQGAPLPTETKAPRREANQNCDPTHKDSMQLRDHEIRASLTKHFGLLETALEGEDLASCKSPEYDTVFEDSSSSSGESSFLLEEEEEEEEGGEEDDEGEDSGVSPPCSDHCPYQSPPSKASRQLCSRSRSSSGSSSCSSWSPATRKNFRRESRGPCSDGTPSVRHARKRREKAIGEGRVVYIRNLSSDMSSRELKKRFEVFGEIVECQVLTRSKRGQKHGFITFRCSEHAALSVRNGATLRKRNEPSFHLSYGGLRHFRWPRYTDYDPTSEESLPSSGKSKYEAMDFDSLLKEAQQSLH
Method: Whether synoviolin and PGC-1β actually form a complex in in vivo was investigated. Specifically, a plasmid for expressing PGC-1β with HA tag (HA PGC-1β) and a plasmid for expressing synoviolin with FLAG tag (SYVN1/FLAG) or the modified synoviolin with FLAG tag (SYVN1ΔSyU/FLAG) were transfected in HEK-293T cells. Whole cell extract from the HEK-293T cells transfected with the expression plasmids was prepared to immunoprecipitate using anti-FLAG antibody. Proteins bound to the anti-FLAG antibody were eluted and separated by SDS-PAGE, and Western blot was performed using anti-HA antibody and the anti-FLAG antibody.

[4] = target: T4, HA PGC-1β (full-length mouse PGC-1β with HA tag), Q8VHJ7
T4 chain: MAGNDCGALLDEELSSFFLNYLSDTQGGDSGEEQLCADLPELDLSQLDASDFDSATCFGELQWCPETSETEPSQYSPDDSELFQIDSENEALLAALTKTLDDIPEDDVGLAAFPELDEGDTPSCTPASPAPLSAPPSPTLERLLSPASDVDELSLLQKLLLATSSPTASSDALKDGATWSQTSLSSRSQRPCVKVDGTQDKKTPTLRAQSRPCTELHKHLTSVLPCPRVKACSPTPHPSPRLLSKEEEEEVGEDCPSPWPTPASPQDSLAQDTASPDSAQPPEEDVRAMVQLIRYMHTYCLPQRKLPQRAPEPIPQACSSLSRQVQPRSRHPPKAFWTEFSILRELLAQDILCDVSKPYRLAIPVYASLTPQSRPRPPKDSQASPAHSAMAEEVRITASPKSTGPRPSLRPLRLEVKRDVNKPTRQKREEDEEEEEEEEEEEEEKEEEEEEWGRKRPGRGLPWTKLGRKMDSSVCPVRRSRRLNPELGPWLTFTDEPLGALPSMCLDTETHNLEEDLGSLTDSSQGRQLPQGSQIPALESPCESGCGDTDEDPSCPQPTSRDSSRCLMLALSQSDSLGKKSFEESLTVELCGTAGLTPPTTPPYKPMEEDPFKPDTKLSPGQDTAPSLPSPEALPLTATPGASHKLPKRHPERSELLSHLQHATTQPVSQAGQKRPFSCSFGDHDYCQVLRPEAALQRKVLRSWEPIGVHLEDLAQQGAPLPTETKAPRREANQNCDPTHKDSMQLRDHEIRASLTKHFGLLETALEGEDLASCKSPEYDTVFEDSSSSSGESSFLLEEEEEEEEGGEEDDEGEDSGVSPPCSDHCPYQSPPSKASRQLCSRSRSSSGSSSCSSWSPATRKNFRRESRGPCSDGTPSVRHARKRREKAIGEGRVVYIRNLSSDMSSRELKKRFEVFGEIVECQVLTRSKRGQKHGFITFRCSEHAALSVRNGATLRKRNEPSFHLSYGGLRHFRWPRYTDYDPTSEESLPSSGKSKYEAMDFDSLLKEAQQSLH

[5] = target: T3, HA PGC-1β (full-length mouse PGC-1β …); assay: cell-based or functional assay

Molecule: MBP-SYVN1 ΔTM-His
in vitro ubiquitination assay (E1-His, UbcH5C, HA-ubiquitin; GST capture, Western blot) [1]: synoviolin (SYVN1) has directly ubiquitinated PGC-1β

B1: modified synoviolin fused to GST (syno(236-338)) (protein)
chain: KVHTFPLFAIRPMYLAMRQFKKAVTDAIMSRRAIRNMNTLYPDATPEELQAMDNVCIICREEMVTGAKRLPCNHIFHTSCLRSWFQRQQTCPTCRMDVLRASL
in vitro ubiquitination assay [2]: polyubiquitinated PGC-1β was detected under the condition with the presence of all of ATP, PK-His-HA-Ub, E1-His, UBE2G2-His, and syno(236-338)

binding result [3]: no binding
half-life of PGC-1β in cells (cycloheximide chase, Western blot) [5]: 3.6 h
B2: modified synoviolin with FLAG tag (SYVN1ΔSyU/FLAG) (enzyme, UniProt Q86TM6 1-617, looked up)
chain: MFRTAVMMAASLALTGAVVAHAYYLKHQFYPTVVYLTKSSPSMAVLYIQAFVLVFLLGKVMGKVFFGQLRAAEMEHLLERSWYAVTETCLAFTVFRDDFSPRFVALFTLLLFLKCFHWLAEDRVDFMERSPNISWLFHCRIVSLMFLLGILDFLFVSHAYHSILTRGASVQLVFGFEYAILMTMVLTIFIKYVLHSVDLQSENPWDNKAVYMLYTELFTGFIKVLLYMAFMTIMINMNTLYPDATPEELQAMDNVCIICREEMVTGAKRLPCNHIFHTSCLRSWFQRQQTCPTCRMDVLRASLPAQSPPPPEPADQGPPPAPHPPPLLPQPPNFPQGLLPPFPPGMFPLWPPMGPFPPVPPPPSSGEAVAPPSTSAAALSRPSGAATTTAAGTSATAASATASGPGSGSAPEAGPAPGFPFPPPWMGMPLPPPFAFPPMPVPPAGFAGLTPEELRALEGHERQHLEARLQSLRNIHTLLDAAMLQINQYLTVLASLGPPRPATSVNSTEETATTVVAAASSTSIPSSEATTPTPGASPPAPEMERPPAPESVGTEEMPEDGEPDAAELRRRRLQKLESPVAH
notes: Deletion construct expressed in cells; also called synoviolin ΔSyU/FLAG; Synoviolin ASyU/FLAG; not shown: FLAG tag
half-life of PGC-1β (cycloheximide chase, MEF Syno-/-) [4]: SYVN1 ΔSyU has not so promoted degradation of PGC-1β
